The source of these data is patent US20230242635A1 (published 2023).

The target in test [1] is T1, canine FcRn complex (FcRn-α subunit and β-microglobulin), biotin labeled by BirA, captured on SA chip … (canine, UniProt A0A8I3PFR8 25-296, biotin label by BirA enzymatic biotinylation (BAP tag)). In words: SPR (Biacore), biotinylated FcRn captured on SA chip, IgG flowed, pH 6, 15 C. In general terms: SPR reads the build-up and loss of mass on a sensor chip optically.
For test [2], the target named is T1, canine FcRn complex (FcRn-α subunit and …). In words: SPR (Biacore), biotinylated FcRn captured on SA chip, IgG flowed, pH 7.4, 15 C.
Test [3] concerns the target canine FcRn complex (FcRn-α subunit and β-microglobulin), biotin labeled by BirA, captured on SA chip (Example 5) (canine). Description: SPR (Biacore), biotinylated FcRn captured on SA chip, IgG flowed, pH 6, 15 C.

T1 sequence (A0A8I3PFR8 entry or part of it, one chain of several): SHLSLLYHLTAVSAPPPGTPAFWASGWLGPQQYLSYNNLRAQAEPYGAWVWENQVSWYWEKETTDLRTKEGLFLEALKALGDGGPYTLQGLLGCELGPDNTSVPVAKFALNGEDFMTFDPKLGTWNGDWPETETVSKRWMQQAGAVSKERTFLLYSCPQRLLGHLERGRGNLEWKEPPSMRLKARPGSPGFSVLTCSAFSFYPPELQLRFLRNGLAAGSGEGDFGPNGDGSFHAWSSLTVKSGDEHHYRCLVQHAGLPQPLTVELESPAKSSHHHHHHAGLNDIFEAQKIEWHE

B1: caninized anti-IL31 antibody 34D03 (mAb1), canine IgGB, N434A (antibody)
chain 1: EVQLVESGGDLVKPGGSLRLSCVASGFTFSNYGMSWVRQAPGKGLQWVATISYGGSYTYYPDNIKGRFTISRDNAKNTLYLQMNSLRAEDTAMYYCVRGYGYDTMDYWGQGTLVTVSSASTTAPSVFPLAPSCGSTSGSTVALACLVSGYFPEPVTVSWNSGSLTSGVHTFPSVLQSSGLYSLSSMVTVPSSRWPSETFTCNVAHPASKTKVDKPVPKRENGRVPRPPDCPKCPAPEMLGGPSVFIFPPKPKDTLLIARTPEVTCVVVDLDPEDPEVQISWFVDGKQMQTAKTQPREEQFNGTYRVVSVLPIGHQDWLKGKQFTCKVNNKALPSPIERTISKARGQAHQPSVYVLPPSREELSKNTVSLTCLIKDFFPPDIDVEWQSNGQQEPESKYRTTPPQLDEDGSYFLYSKLSVDKSRWQRGDTFICAVMHEALHAHYTQESLSHSPGK
chain 2: EIVMTQSPASLSLSQEEKVTITCKASQSVSFAGTGLMHWYQQKPGQAPKLLIYRASNLEAGVPSRFSGSGSGTDFSFTISSLEPEDVAVYYCQQSREYPWTFGQGTKLEIK
The term Kd denotes the free concentration of one partner at which half of the binding sites on the other are occupied at equilibrium, for simple one-to-one binding. With B1, the equilibrium dissociation constant (Kd) was 139 nM in test [1] and 175 nM in test [2].

B2: caninized anti-IL31 antibody 34D03 (mAb1), canine IgGB, N434F (antibody)
chain 1: EVQLVESGGDLVKPGGSLRLSCVASGFTFSNYGMSWVRQAPGKGLQWVATISYGGSYTYYPDNIKGRFTISRDNAKNTLYLQMNSLRAEDTAMYYCVRGYGYDTMDYWGQGTLVTVSSASTTAPSVFPLAPSCGSTSGSTVALACLVSGYFPEPVTVSWNSGSLTSGVHTFPSVLQSSGLYSLSSMVTVPSSRWPSETFTCNVAHPASKTKVDKPVPKRENGRVPRPPDCPKCPAPEMLGGPSVFIFPPKPKDTLLIARTPEVTCVVVDLDPEDPEVQISWFVDGKQMQTAKTQPREEQFNGTYRVVSVLPIGHQDWLKGKQFTCKVNNKALPSPIERTISKARGQAHQPSVYVLPPSREELSKNTVSLTCLIKDFFPPDIDVEWQSNGQQEPESKYRTTPPQLDEDGSYFLYSKLSVDKSRWQRGDTFICAVMHEALHFHYTQESLSHSPGK
chain 2: EIVMTQSPASLSLSQEEKVTITCKASQSVSFAGTGLMHWYQQKPGQAPKLLIYRASNLEAGVPSRFSGSGSGTDFSFTISSLEPEDVAVYYCQQSREYPWTFGQGTKLEIK
As to B2, the dissociation constant (Kd) was determined as 30.7 nM in test [1] and 33700 nM in test [2].

B3: caninized anti-IL31 antibody 34D03 (mAb1), canine IgGB, N434K (antibody)
chain 1: EVQLVESGGDLVKPGGSLRLSCVASGFTFSNYGMSWVRQAPGKGLQWVATISYGGSYTYYPDNIKGRFTISRDNAKNTLYLQMNSLRAEDTAMYYCVRGYGYDTMDYWGQGTLVTVSSASTTAPSVFPLAPSCGSTSGSTVALACLVSGYFPEPVTVSWNSGSLTSGVHTFPSVLQSSGLYSLSSMVTVPSSRWPSETFTCNVAHPASKTKVDKPVPKRENGRVPRPPDCPKCPAPEMLGGPSVFIFPPKPKDTLLIARTPEVTCVVVDLDPEDPEVQISWFVDGKQMQTAKTQPREEQFNGTYRVVSVLPIGHQDWLKGKQFTCKVNNKALPSPIERTISKARGQAHQPSVYVLPPSREELSKNTVSLTCLIKDFFPPDIDVEWQSNGQQEPESKYRTTPPQLDEDGSYFLYSKLSVDKSRWQRGDTFICAVMHEALHKHYTQESLSHSPGK
chain 2: EIVMTQSPASLSLSQEEKVTITCKASQSVSFAGTGLMHWYQQKPGQAPKLLIYRASNLEAGVPSRFSGSGSGTDFSFTISSLEPEDVAVYYCQQSREYPWTFGQGTKLEIK
As to B3, the Kd came to 9.11 nM in test [1] and 7.86 nM in test [2].

B4: caninized anti-IL31 antibody 34D03 (mAb1), canine IgGB, N434G (antibody)
chain 1: EVQLVESGGDLVKPGGSLRLSCVASGFTFSNYGMSWVRQAPGKGLQWVATISYGGSYTYYPDNIKGRFTISRDNAKNTLYLQMNSLRAEDTAMYYCVRGYGYDTMDYWGQGTLVTVSSASTTAPSVFPLAPSCGSTSGSTVALACLVSGYFPEPVTVSWNSGSLTSGVHTFPSVLQSSGLYSLSSMVTVPSSRWPSETFTCNVAHPASKTKVDKPVPKRENGRVPRPPDCPKCPAPEMLGGPSVFIFPPKPKDTLLIARTPEVTCVVVDLDPEDPEVQISWFVDGKQMQTAKTQPREEQFNGTYRVVSVLPIGHQDWLKGKQFTCKVNNKALPSPIERTISKARGQAHQPSVYVLPPSREELSKNTVSLTCLIKDFFPPDIDVEWQSNGQQEPESKYRTTPPQLDEDGSYFLYSKLSVDKSRWQRGDTFICAVMHEALHGHYTQESLSHSPGK
chain 2: EIVMTQSPASLSLSQEEKVTITCKASQSVSFAGTGLMHWYQQKPGQAPKLLIYRASNLEAGVPSRFSGSGSGTDFSFTISSLEPEDVAVYYCQQSREYPWTFGQGTKLEIK
Turning to B4, the results for the Kd in test [1] and in test [2] were 118 nM and 26000 nM, respectively.

B5: caninized anti-IL31 antibody 34D03 (mAb1), canine IgGB, N434I (antibody)
chain 1: EVQLVESGGDLVKPGGSLRLSCVASGFTFSNYGMSWVRQAPGKGLQWVATISYGGSYTYYPDNIKGRFTISRDNAKNTLYLQMNSLRAEDTAMYYCVRGYGYDTMDYWGQGTLVTVSSASTTAPSVFPLAPSCGSTSGSTVALACLVSGYFPEPVTVSWNSGSLTSGVHTFPSVLQSSGLYSLSSMVTVPSSRWPSETFTCNVAHPASKTKVDKPVPKRENGRVPRPPDCPKCPAPEMLGGPSVFIFPPKPKDTLLIARTPEVTCVVVDLDPEDPEVQISWFVDGKQMQTAKTQPREEQFNGTYRVVSVLPIGHQDWLKGKQFTCKVNNKALPSPIERTISKARGQAHQPSVYVLPPSREELSKNTVSLTCLIKDFFPPDIDVEWQSNGQQEPESKYRTTPPQLDEDGSYFLYSKLSVDKSRWQRGDTFICAVMHEALHIHYTQESLSHSPGK
chain 2: EIVMTQSPASLSLSQEEKVTITCKASQSVSFAGTGLMHWYQQKPGQAPKLLIYRASNLEAGVPSRFSGSGSGTDFSFTISSLEPEDVAVYYCQQSREYPWTFGQGTKLEIK
Turning to B5, the dissociation constant (Kd) came to 77.1 nM in test [1] and 19600 nM in test [2].

B6: caninized anti-IL31 antibody 34D03 (mAb1), canine IgGB, N434L (antibody)
chain 1: EVQLVESGGDLVKPGGSLRLSCVASGFTFSNYGMSWVRQAPGKGLQWVATISYGGSYTYYPDNIKGRFTISRDNAKNTLYLQMNSLRAEDTAMYYCVRGYGYDTMDYWGQGTLVTVSSASTTAPSVFPLAPSCGSTSGSTVALACLVSGYFPEPVTVSWNSGSLTSGVHTFPSVLQSSGLYSLSSMVTVPSSRWPSETFTCNVAHPASKTKVDKPVPKRENGRVPRPPDCPKCPAPEMLGGPSVFIFPPKPKDTLLIARTPEVTCVVVDLDPEDPEVQISWFVDGKQMQTAKTQPREEQFNGTYRVVSVLPIGHQDWLKGKQFTCKVNNKALPSPIERTISKARGQAHQPSVYVLPPSREELSKNTVSLTCLIKDFFPPDIDVEWQSNGQQEPESKYRTTPPQLDEDGSYFLYSKLSVDKSRWQRGDTFICAVMHEALHLHYTQESLSHSPGK
chain 2: EIVMTQSPASLSLSQEEKVTITCKASQSVSFAGTGLMHWYQQKPGQAPKLLIYRASNLEAGVPSRFSGSGSGTDFSFTISSLEPEDVAVYYCQQSREYPWTFGQGTKLEIK
As to B6, the values for the Kd in test [1] and in test [2] were 14.3 nM and 997 nM, respectively.

B7: caninized anti-NGF antibody ZTS-841 (mAb2 of Table 4), canine IgGC, WT (antibody, from a related filing, part only)
heavy: EVQLVESGGDLVKPGGSLRLSCVASGFTFSSHGMHWVRQSPGKGLQWVAVINSGGSSTYYTDAVKGRFTISRDNAKNTVYLQMNSLRAEDTAMYYCAKESVGGWEQLVGPHFDYWGQGTLVIVSSASTTAPSVFPLAPSCGSQSGSTVALACLVSGYIPEPVTVSWNSVSLTSGVHTFPSVLQSSGLYSLSSMVTVPSSRWPSETFTCNVAHPATNTKVDKPVAKECECKCNCNNCPCPGCGLLGGPSVFIFPPKPKDILVTARTPTVTCVVVDLDPENPEVQISWFVDSKQVQTANTQPREEQSNGTYRVVSVLPIGHQDWLSGKQFKCKVNNKALPSPIEEIISKTPGQAHQPNVYVLPPSRDEMSKNTVTLTCLVKDFFPPEIDVEWQSNGQQEPESKYRMTPPQLDEDGSYFLYSKLSVDKSRWQRGDTFICAVMHEALHNHYTQISLSHSPGK
VL: QSVLTQPTSVSGSLGQRVTISCSGSTNNIGILGASWYQLFPGKAPKLLVYGNGNRPSGVPDRFSGADSGDSVTLTITGLQAEDEADYYCQSFDTTLGAHVFGGGTHLTVL
For the molecule B7, the Kd in test [3] worked out at 52 nM.

B8: caninized anti-NGF antibody ZTS-841 (mAb2 of Table 4), canine IgGD, WT (antibody, from a related filing, part only)
heavy: EVQLVESGGDLVKPGGSLRLSCVASGFTFSSHGMHWVRQSPGKGLQWVAVINSGGSSTYYTDAVKGRFTISRDNAKNTVYLQMNSLRAEDTAMYYCAKESVGGWEQLVGPHFDYWGQGTLVIVSSASTTAPSVFPLAPSCGSTSGSTVALACLVSGYFPEPVTVSWNSGSLTSGVHTFPSVLQSSGLYSLSSTVTVPSSRWPSETFTCNVVHPASNTKVDKPVPKESTCKCISPCPVPESLGGPSVFIFPPKPKDILRITRTPEITCVVLDLGREDPEVQISWFVDGKEVHTAKTQPREQQFNSTYRVVSVLPIEHQDWLTGKEFKCRVNHIGLPSPIERTISKARGQAHQPSVYVLPPSPKELSSSDTVTLTCLIKDFFPPEIDVEWQSNGQPEPESKYHTTAPQLDEDGSYFLYSKLSVDKSRWQQGDTFTCAVMHEALQNHYTDLSLSHSPGK
VL: QSVLTQPTSVSGSLGQRVTISCSGSTNNIGILGASWYQLFPGKAPKLLVYGNGNRPSGVPDRFSGADSGDSVTLTITGLQAEDEADYYCQSFDTTLGAHVFGGGTHLTVL
For B8, in test [3], the Kd worked out at 71 nM. The Kd values of the last two molecules are within 1.5-fold of each other.

B9: caninized anti-IL31 antibody 11E12 (mAb1 of Table 5), canine IgGB, WT2 (antibody, part only; not given: light chain, part only)
heavy: EVQLVQSGAEVKKPGASVKVSCKTSGYTFKYYDINWVRQAPGAGLDWMGWIFPGDGGTKYNETFKGRVTLTADTSTSTAYMELSSLRAGDIAVYYCARGGTSVIRDAMDYWGQGTLVTVSSASTTAPSVFPLAPSCGSTSGSTVALACLVSGYFPEPVTVSWNSGSLTSGVHTFPSVLQSSGLYSLSSMVTVPSSRWPSETFTCNVAHPASKTKVDKPVPKRENGRVPRPPDCPKCPAPEMLGGPSVFIFPPKPKDTLLIARTPEVTCVVVDLDPEDPEVQISWFVDGKQMQTAKTQPREEQFNGTYRVVSVLPIGHQDWLKGKQFTCKVNNKALPSPIERTISKARGQAHQPSVYVLPPSREELSKNTVSLTCLIKDFFPPDIDVEWQSNGQQEPESKYRTTPPQLDEDGSYFLYSKLSVDKSRWQRGDTFICAVMHEALHNHYTQESLSHSPGK
For the molecule B9, the Kd in test [3] worked out at 40 nM.
